The record followed here is US20240294895A1, “ENZYMATIC COMPOSITIONS FOR CARBOHYDRATE ANTIGEN CLEAVAGE ON DONOR ORGANS, METHODS AND USES ASSOCIATED THEREWITH” (THE UNIVERSITY OF BRITISH COLUMBIA, priority 2018, published 2024).

Experiment in all cases: Kinetic parameters of FpGalNAcDeAc full length (coupled fluorescence assay, MU release)
Common to all, as to format: biochemical, Flavonifractor plautii
Common to all, as to details: other: 100 mM NaH2PO4, pH 7.4, 37° C.

Substrate in data set [1]: CC(=O)N[C@H]1[C@@H](O[C@H]2[C@@H](O)[C@@H](CO)O[C@@H](O[C@H]3[C@@H](O)[C@@H](CO)O[C@@H](Oc4ccc5c(C)cc(=O)oc5c4)[C@@H]3NC(C)=O)[C@@H]2O[C@@H]2O[C@@H](C)[C@@H](O)[C@@H](O)[C@@H]2O)O[C@H](CO)[C@H](O)[C@@H]1O
How it is done:
(§1) All kinetic assays utilizing 4-methylumbelliferone as leaving group were performed through measurement of fluorescence. To avoid measurement errors based on the inner filter effect (Palmier 2007) standard curves were used to validate the linear range of the fluorophore.
(§2) Michaelis-Menten parameters were determined for A antigen subtype 1penta-MU in 100 mM NaH2PO4, pH 7.4 at 37° C. using the coupled assays described previously (Kwan 2015). The assay was modified to allow detection of cleavage of the subtype 1 (and later 4), by use of BgaC (Jeong 2009) instead of BgaA (Singh 2014) as β-galactosidase. In addition, since A antigen subtype 1penta-MU contains an additional galactose, the concentration of BgaC was increased to 0.2 mg/mL to compensate for its need to cleave both the Gal-β-1,3-B-GlcNAc-β-1,3-Gal-β-MU and Gal-β-MU. Further, FpGalactosaminidase was included to allow the cleavage of the galactosamine-containing intermediate. Reaction setup in 100 μl was 3 nM FpGalNacDeacetylase (4.52 nM FpGalNacDeAc_D1ext, 3.55 nM FpGalNacDeAc_D1+2) and 0.01 mg/mL FpGalactosaminidase, 0.1 mg/mL SpHex, AfcA, 0.2 mg/mL BgaC and varying concentrations of substrate (5 μM-2.5 mM). The reactions were run as a series of four with controls (no FpGalNacDeacetylase) as duplicates. The fluorescence signal (365/435 nm) resulting from MU release by hydrolysis was monitored on a Synergy H1™ plate reader (BioTek™) and converted to concentration using MU standard concentration curves determined under identical reaction conditions. Initial rates (μM/s) were determined and plotted in Grafit 7.0 to determine the kinetic parameters.
(§3) kcat/KM parameter were determined for A antigen subtype 1/2/4tetra-MU at pH 7.4 at 37° C. Reactions (total volume of 100 μL) were performed in black 96-plate wells and as coupled assays in 100 mM NaH2PO4 (pH 7.4) with 12 nM FpGalNAcDeacetylase 0.1 mg/mL SpHex, BgaC (BgaA for subtype II), AfcA, at varying concentrations of substrate (25 μM, 20 μM, 15 μM, 10 μM, 7.5 μM, 5 μM). The reactions were run as a series of four with controls (no FpGalNAcDeacetylase) as duplicates. The fluorescence signal (365/435 nm) resulting from MU release by hydrolysis was monitored on a Synergy H1™ plate reader (BioTek™) and converted to concentration using MU standard concentration curves determined under identical reaction conditions. Initial rates (μM/s) were determined and plotted in Grafit™ 7.0 to determine the kcat/KM (s^−1*mM^−1) parameters.

Substrate in data set [2]: CC(=O)N[C@H]1[C@@H](O[C@H]2[C@@H](O)[C@@H](CO)O[C@@H](O[C@H]3[C@H](O)[C@@H](CO)O[C@@H](O[C@H]4[C@@H](O)[C@@H](CO)O[C@@H](Oc5ccc6c(C)cc(=O)oc6c5)[C@@H]4O)[C@@H]3NC(C)=O)[C@@H]2O[C@@H]2O[C@@H](C)[C@@H](O)[C@@H](O)[C@@H]2O)O[C@H](CO)[C@H](O)[C@@H]1O
How it is done:
as §1, §2, §3

Substrate in data set [3]: CC(=O)N[C@H]1[C@@H](O[C@H]2[C@@H](O)[C@@H](CO)O[C@@H](O[C@H]3[C@H](O)[C@@H](CO)O[C@@H](Oc4ccc5c(C)cc(=O)oc5c4)[C@@H]3NC(C)=O)[C@@H]2O[C@@H]2O[C@@H](C)[C@@H](O)[C@@H](O)[C@@H]2O)O[C@H](CO)[C@H](O)[C@@H]1O
How it is done: as §1, §2, §3

Substrate in data set [4]: CC(=O)N[C@H]1[C@H](Oc2ccc3c(C)cc(=O)oc3c2)O[C@H](CO)[C@@H](O[C@@H]2O[C@H](CO)[C@H](O)[C@H](O[C@H]3O[C@H](CO)[C@H](O)[C@H](O)[C@H]3NC(C)=O)[C@H]2O[C@@H]2O[C@@H](C)[C@@H](O)[C@@H](O)[C@@H]2O)[C@@H]1O
How it is done:
as §1, §2, §3

B1: Flavonifractor plautii GalNAcDeacetylase (FpGalNAcDeAc), full length, SEQ ID NO: 2, 4, 5 (Flavonifractor plautii) (protein)
chain: MGHHHHHHHHHHSSGADSSESALNKAPGYQDFPAYYSDSAHADDQVTHPDVVVLEEPWNGYRYWAVYTPNVMRISIYENPSIVASSDGVHWVEPEGLSNPIEPQPPSTRYHNCDADMVYNAEYDAMMAYWNWADDQGGGVGAEVRLRISYDGVHWGVPVTYDEMTRVWSKPTSDAERQVADGEDDFITAIASPDRYDMLSPTIVYDDFRDVFILWANNTGDVGYQNGQANFVEMRYSDDGITWGEPVRVNGFLGLDENGQQLAPWHQDVQYVPDLKEFVCISQCFAGRNPDGSVLHLTTSKDGVNWEQVGTKPLLSPGPDGSWDDFQIYRSSFYYEPGSSAGDGTMRVWYSALQKDTNNKMVADSSGNLTIQAKSEDDRIWRIGYAENSFVEMMRVLLDDPGYTTPALVSGNSLMLSAETTSLPTGDVMKLETSFAPVDTSDQVVKYTSSDPDVATVDEFGTITGVSVGSARIMAETREGLSDDLEIAVVENPYTLIPQSNMTATATSVYGGTTEGPASNVLDGNVRTIWHTNYAPKDELPQSITVSFDQPYTVGRFVYTPRQNGTNGIISEYELYAIHQDGSKDLVASGSDWALDAKDKTVSFAPVEAVGLELKAIAGAGGFGTAAELNVYAYGPIEPAPVYVPVDDRDASLVFTGAWNSDSNGSFYEGTARYTNEIGASVEFTFVGTAIRWYGQNDVNFGAAEVYVDGVLAGEVNVYGPAAAQQLLFEADGLAYGKHTIRIVCVSPVVDFDYFSYVGE
B1: the kcat/Km in data set [1] came to 33270 ± 2080 M⁻¹ s⁻¹; in data set [2] it was 14280 M⁻¹ s⁻¹; in data set [3] it was 23490 ± 630 M⁻¹ s⁻¹; in data set [4] it was 23370 ± 710 M⁻¹ s⁻¹. In data set [2], the Km worked out at 340 ± 35 µM. The turnover number (kcat) in data set [2] worked out at 4.86 s⁻¹.

Broadly, the kcat/Km is the second-order rate constant that governs catalysis at low substrate concentration. The term Km denotes the substrate concentration at which the rate is half of its maximum. The term kcat denotes the number of substrate molecules converted per active site and unit of time at saturation.
